In the Human Domainome abundance scans (Beltran et al. 2025):
± gives the uncertainty stated by the source.

B1: Double-stranded RNA-binding protein Staufen homolog 1, residues 183 to 249; numbered along this chain, O95793 (parent)
chain: KSEISQVFEIALKRNLPVNFEVARESGPPHMKNFVTKVSVGEFVGEGEGKSKKISKKNAAIAVLEEL

Variants of: B1
Assay: abundance fitness (aPCA) (normalised: wild type 0, dead -1); higher = more abundant; growth selection in yeast, the domain comes from the species named
Details: Homo sapiens

Variant | abundance fitness
KSEISQVFEIALKRNLPVNFEVARESGPPHTKNFVTKVSVGEFVGEGEGKSKKISKKNAAIAVLEEL [M31T] | 0.019 ± 0.044
KSEISQVFEIALKRNLPVNFEVARESGPPHPKNFVTKVSVGEFVGEGEGKSKKISKKNAAIAVLEEL [M31P] | -0.132 ± 0.051
KSEISQVFEIALKRNLPVNFEVARESGPPHWKNFVTKVSVGEFVGEGEGKSKKISKKNAAIAVLEEL [M31W] | -0.208 ± 0.038
KSEISQVFEIALKRNLLVNFEVARESGPPHMKNFVTKVSVGEFVGEGEGKSKKISKKNAAIAVLEEL [P17L] | -0.196 ± 0.041
KSEISQVFEIASKRNLPVNFEVARESGPPHMKNFVTKVSVGEFVGEGEGKSKKISKKNAAIAVLEEL [L12S] | 0.028 ± 0.081
KSEISQVFEIAMKRNLPVNFEVARESGPPHMKNFVTKVSVGEFVGEGEGKSKKISKKNAAIAVLEEL [L12M] | 0.011 ± 0.079
KSEISQVFEIAYKRNLPVNFEVARESGPPHMKNFVTKVSVGEFVGEGEGKSKKISKKNAAIAVLEEL [L12Y] | 0.066 ± 0.14
KSEISQVFEIALKRNLPVNFEVARESGPWHMKNFVTKVSVGEFVGEGEGKSKKISKKNAAIAVLEEL [P29W] | -0.274 ± 0.042
KSEISQVFEIALRRNLPVNFEVARESGPPHMKNFVTKVSVGEFVGEGEGKSKKISKKNAAIAVLEEL [K13R] | -0.071 ± 0.046
KSEISQVFEIALCRNLPVNFEVARESGPPHMKNFVTKVSVGEFVGEGEGKSKKISKKNAAIAVLEEL [K13C] | -0.296 ± 0.084
KSEISQVFEIALKRNLPVNMEVARESGPPHMKNFVTKVSVGEFVGEGEGKSKKISKKNAAIAVLEEL [F20M] | -0.305 ± 0.058
KSEISQVFEIALKRNLPVNFEVARESGPPHMKNFVTKVSVGRFVGEGEGKSKKISKKNAAIAVLEEL [E42R] | -0.032 ± 0.033
KSEISQVFEIALKRNLPVNFEVARESGPPHMKNFVTKVSVGSFVGEGEGKSKKISKKNAAIAVLEEL [E42S] | 0.028 ± 0.045
KSEISQVFEIALKRNLPVNFEVARESGPPHMKNFVTKVSVGEFVGEGEGKSKKISKKNAAIYVLEEL [A62Y] | -0.788 ± 0.14
KSEISQVFEIALKRNLPVNFEVARESYPPHMKNFVTKVSVGEFVGEGEGKSKKISKKNAAIAVLEEL [G27Y] | -0.437 ± 0.079
KSEISQVFEIALKRNLPVNFEVARESFPPHMKNFVTKVSVGEFVGEGEGKSKKISKKNAAIAVLEEL [G27F] | -0.436 ± 0.071
KSEISQVFEIALKRNGPVNFEVARESGPPHMKNFVTKVSVGEFVGEGEGKSKKISKKNAAIAVLEEL [L16G] | -0.863 ± 0.079
KSEISQVFEIALKRNAPVNFEVARESGPPHMKNFVTKVSVGEFVGEGEGKSKKISKKNAAIAVLEEL [L16A] | -0.421 ± 0.079
KSEISQVFEIALKRNSPVNFEVARESGPPHMKNFVTKVSVGEFVGEGEGKSKKISKKNAAIAVLEEL [L16S] | -0.609 ± 0.07
KSEISQVFEIALKRNLPVNFEVARESGPPHMKNFVTKVSVGEFVGEGEPKSKKISKKNAAIAVLEEL [G49P] | -0.854 ± 0.08

Variant | abundance fitness
KSEISQVFEIALKRNLPVNFEVARESGPPHMKNFVTKVSVGEFVGEGEYKSKKISKKNAAIAVLEEL [G49Y] | -1 ± 0.18
KSEISQVFEIALKRNLPVNFEVARESGPPHMKNFVTKVSVGEFVGEGEDKSKKISKKNAAIAVLEEL [G49D] | -0.519 ± 0.064
KSEISQVFEIALKRNLPVNFEVARESGPPHMKNFVTKVSVGEFVGEGEFKSKKISKKNAAIAVLEEL [G49F] | -1.14 ± 0.17
KSEISQVFEIALKRNLPVNFEVARESGPPHMKNFVTKVSVGEFVGEGECKSKKISKKNAAIAVLEEL [G49C] | -0.911 ± 0.13
YSEISQVFEIALKRNLPVNFEVARESGPPHMKNFVTKVSVGEFVGEGEGKSKKISKKNAAIAVLEEL [K1Y] | -0.211 ± 0.11
KSEISQVFEIALKRNLPVNFEVARESGPPHMKNFVTKVSVGEKVGEGEGKSKKISKKNAAIAVLEEL [F43K] | -0.317 ± 0.063
KSEISQVFEIALKRNLPVNFEVARESGPPHMKNFVTKVSVGEFVGEGEGKSKKISKKNAAIAYLEEL [V63Y] | -0.906 ± 0.12
KSEISQVFEIALKRNLPVNFECARESGPPHMKNFVTKVSVGEFVGEGEGKSKKISKKNAAIAVLEEL [V22C] | -0.087 ± 0.072
KSVISQVFEIALKRNLPVNFEVARESGPPHMKNFVTKVSVGEFVGEGEGKSKKISKKNAAIAVLEEL [E3V] | -0.022 ± 0.037
KSEISQVFEIALKRNLPVNFEVARESGPPHMKNFVTKVGVGEFVGEGEGKSKKISKKNAAIAVLEEL [S39G] | -0.55 ± 0.046
KSEISQVFEIALKRNLPVNFEVARESGPPHMKNFVTKVSVGEFVGEGEGKSKKISKKNAAIAVLEQL [E66Q] | 0.138 ± 0.06
KSEISQVFEIALKRNLPVNFEVARRSGPPHMKNFVTKVSVGEFVGEGEGKSKKISKKNAAIAVLEEL [E25R] | -0.046 ± 0.036
KSEISQVFEIKLKRNLPVNFEVARESGPPHMKNFVTKVSVGEFVGEGEGKSKKISKKNAAIAVLEEL [A11K] | -0.633 ± 0.068
KSEISQVFEITLKRNLPVNFEVARESGPPHMKNFVTKVSVGEFVGEGEGKSKKISKKNAAIAVLEEL [A11T] | -0.653 ± 0.087
KSEISQVFEIALKRNLPVNFEVARESGPPHMKNFVTKVSVPEFVGEGEGKSKKISKKNAAIAVLEEL [G41P] | -0.645 ± 0.095
KSEISQVFEIALKRGLPVNFEVARESGPPHMKNFVTKVSVGEFVGEGEGKSKKISKKNAAIAVLEEL [N15G] | 0.025 ± 0.041
KSEISQFFEIALKRNLPVNFEVARESGPPHMKNFVTKVSVGEFVGEGEGKSKKISKKNAAIAVLEEL [V7F] | -0.748 ± 0.083
KSEISQVFEIALKRNLPVNFEVARESGPPHMKNFVTWVSVGEFVGEGEGKSKKISKKNAAIAVLEEL [K37W] | -0.442 ± 0.13
KSEISQVFEIALKRNLPVNFEVARESGPPHMKNFVTGVSVGEFVGEGEGKSKKISKKNAAIAVLEEL [K37G] | -0.758 ± 0.1
KSEISQVFEIALKRNLPVNFEVARESGPPHMKNFVTHVSVGEFVGEGEGKSKKISKKNAAIAVLEEL [K37H] | -0.292 ± 0.14
